The values below come from publication PMC12151148.

The target in one assay is AGS3-TPR (1–405) (mouse). As to the kind of experiment: ITC; 25°C; 50 mM Tris (pH 8.0), NaCl raised to 300 mM for AGS3-TPR or AGS3-L, 1 mM EDTA; one protein (0.2 mM) injected into another (0.02 mM); one-site binding model. On the technique in general: In ITC the heat of successive injections is recorded.
The target in another assay is FL-AGS3 (mouse). The assay can be described thus: ITC; 25°C; 50 mM Tris (pH 8.0), 100 mM NaCl, 1 mM EDTA; one protein (0.2 mM) injected into another (0.02 mM); one-site binding model.
Another assay deals with FL-LGN (mouse). Described as above.
Assay [1] addresses LGN-GL1234 (483–650) (mouse). The description is as above.

What is called Kd is the concentration at which binding is half-saturated.

Sequence of Gαi3⋅GDP (P08754 whole entry): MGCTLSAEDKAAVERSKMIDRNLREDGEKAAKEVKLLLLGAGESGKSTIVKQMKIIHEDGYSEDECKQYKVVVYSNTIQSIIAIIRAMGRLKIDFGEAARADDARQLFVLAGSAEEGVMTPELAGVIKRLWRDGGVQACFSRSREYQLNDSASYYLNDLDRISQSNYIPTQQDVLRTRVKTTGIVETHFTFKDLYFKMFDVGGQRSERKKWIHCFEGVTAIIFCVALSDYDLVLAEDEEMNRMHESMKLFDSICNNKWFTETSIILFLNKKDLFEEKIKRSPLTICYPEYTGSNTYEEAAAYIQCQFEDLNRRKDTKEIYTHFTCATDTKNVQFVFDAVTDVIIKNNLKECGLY

On to “AGS3-GL1234 (470–631) (domain or fragment)”, for which, in the assay with AGS3-TPR (1–405) (mouse), the Kd was 0.17 µM.
“Gαi3⋅GDP (from UniProt P08754 1-354) (natural protein)”: the results for the Kd with FL-AGS3 (mouse) and in the assay with FL-LGN (mouse) were 1.6 µM and 1.17 µM, respectively. In assay [1], this substance came in with a stoichiometry N (Gαi3⋅GDP per GoLoco domain) of 4.
